The data set has as its system DosR (phosphorylated) (Mycobacterium tuberculosis). The experiment in a line: EMSA. (In general: A gel shift assay detects complexes by their altered migration in electrophoresis.)

On to hspX promoter probe, for which the binding signal (fold inhibition of binding vs DMSO) was 22.

These data come from doi:10.1101/411793.
